From PMC3698643 (Cell Research, 2013)
Substitutions are numbered along the chain they refer to. Names and notes keep the numbering of the source.

T1: PR70 (108-575) R398D (UniProt Q9Y5P8 108-575, R398D)
T1 sequence: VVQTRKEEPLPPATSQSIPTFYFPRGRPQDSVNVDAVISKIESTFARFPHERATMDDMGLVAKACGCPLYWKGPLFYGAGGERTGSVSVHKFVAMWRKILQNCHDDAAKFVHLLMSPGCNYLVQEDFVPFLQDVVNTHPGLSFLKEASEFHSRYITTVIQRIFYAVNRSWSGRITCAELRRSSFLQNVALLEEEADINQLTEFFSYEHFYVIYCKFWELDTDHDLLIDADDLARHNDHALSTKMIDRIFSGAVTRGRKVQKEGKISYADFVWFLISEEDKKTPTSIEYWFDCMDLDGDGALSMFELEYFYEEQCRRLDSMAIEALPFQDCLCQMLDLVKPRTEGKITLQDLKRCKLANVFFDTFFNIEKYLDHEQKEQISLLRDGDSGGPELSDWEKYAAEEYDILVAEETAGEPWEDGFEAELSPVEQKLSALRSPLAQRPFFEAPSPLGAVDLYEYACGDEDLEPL

B1: PR70 (108-575), wild type (domain or fragment)
chain: T1 sequence with D291R
B2: GST-Cdc6 (18-90) (domain or fragment)
chain: KLSRALNKAKNSSDAKLEPTNVQTVTCSPRVKALPLSPRKRLGDDNLCNTPHLPPCSPPKQGKKENGPPHSHT
B3: PR70 (108-575) D443K (domain or fragment)
chain: T1 sequence with D291R, D336K
B4: PR70 (108-575) F128A (domain or fragment)
chain: T1 sequence with F21A, D291R
B5: GST-Cdc6 (49-90) (domain or fragment)
chain: KALPLSPRKRLGDDNLCNTPHLPPCSPPKQGKKENGPPHSHT
B6: PR70 (122-490) fused to Cdc6 (70-90) via a flexible linker (other)
chain: SQSIPTFYFPRGRPQDSVNVDAVISKIESTFARFPHERATMDDMGLVAKACGCPLYWKGPLFYGAGGERTGSVSVHKFVAMWRKILQNCHDDAAKFVHLLMSPGCNYLVQEDFVPFLQDVVNTHPGLSFLKEASEFHSRYITTVIQRIFYAVNRSWSGRITCAELRRSSFLQNVALLEEEADINQLTEFFSYEHFYVIYCKFWELDTDHDLLIDADDLARHNDHALSTKMIDRIFSGAVTRGRKVQKEGKISYADFVWFLISEEDKKTPTSIEYWFRCMDLDGDGALSMFELEYFYEEQCRRLDSMAIEALPFQDCLCQMLDLVKPRTEGKITLQDLKRCKLANVFFDTFFNIEKYLDHEQKEQISLLRSTGNASDSSSDSSSSEGDGTVLPPCSPPKQGKKENGPPHSHT
B7: PR70 (108-519) (domain or fragment)
chain: VVQTRKEEPLPPATSQSIPTFYFPRGRPQDSVNVDAVISKIESTFARFPHERATMDDMGLVAKACGCPLYWKGPLFYGAGGERTGSVSVHKFVAMWRKILQNCHDDAAKFVHLLMSPGCNYLVQEDFVPFLQDVVNTHPGLSFLKEASEFHSRYITTVIQRIFYAVNRSWSGRITCAELRRSSFLQNVALLEEEADINQLTEFFSYEHFYVIYCKFWELDTDHDLLIDADDLARHNDHALSTKMIDRIFSGAVTRGRKVQKEGKISYADFVWFLISEEDKKTPTSIEYWFRCMDLDGDGALSMFELEYFYEEQCRRLDSMAIEALPFQDCLCQMLDLVKPRTEGKITLQDLKRCKLANVFFDTFFNIEKYLDHEQKEQISLLRDGDSGGPELSDWEKYAAEEYDILVAEETA

Assays:
[1] = target: GST-tagged PP2A core enzyme (GST-A bound to PP2Ac) (UniProt P30153 9-589; P67775 1-309); experiment: pull-down
PR70 (108-575) F128A = target: B4; experiment: pull-down
[2] = target: B1; experiment: pull-down
PR70 (108-575) R398D = target: T1, PR70 (108-575) R398D; experiment: pull-down
PR70 (108-575) D443K = target: B3; experiment: pull-down
[3] = target: PP2A holoenzyme containing PR70 (108-519) (UniProt P30153 9-589; P67775 1-309; Q9Y5P8 108-519); experiment: SEC
[4] = target: PP2A scaffold subunit Aα (9-589) (UniProt P30153 9-589); experiment: crystal structure
[5] = target: PP2A catalytic subunit Cα (1-309), methylated (UniProt P67775 1-309, fully methylated by LCMT-1 (residue not stated)); experiment: crystal structure
[6] = target: PP2A core enzyme (Aα-Cα heterodimer) (UniProt P30153 9-589; P67775 1-309); experiment: SEC
Chain of PP2A core enzyme (Aα-Cα heterodimer) (P30153 9-589, chain 1 of 2): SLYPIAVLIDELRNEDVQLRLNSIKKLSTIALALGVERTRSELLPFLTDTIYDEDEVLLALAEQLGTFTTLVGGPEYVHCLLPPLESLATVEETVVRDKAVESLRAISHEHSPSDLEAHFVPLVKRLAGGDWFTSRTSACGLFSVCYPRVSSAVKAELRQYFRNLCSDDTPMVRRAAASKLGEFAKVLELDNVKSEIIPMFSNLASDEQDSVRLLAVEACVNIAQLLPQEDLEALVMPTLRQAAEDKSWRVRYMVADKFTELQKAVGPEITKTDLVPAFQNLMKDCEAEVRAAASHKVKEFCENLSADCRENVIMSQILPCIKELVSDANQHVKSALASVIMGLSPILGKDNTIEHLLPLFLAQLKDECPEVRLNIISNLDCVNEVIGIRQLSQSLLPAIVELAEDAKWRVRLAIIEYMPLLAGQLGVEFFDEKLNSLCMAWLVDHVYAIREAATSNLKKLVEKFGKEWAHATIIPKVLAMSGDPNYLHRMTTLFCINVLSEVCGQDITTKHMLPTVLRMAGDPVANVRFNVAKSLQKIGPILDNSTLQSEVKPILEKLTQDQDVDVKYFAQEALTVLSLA
Chain of PP2A core enzyme (Aα-Cα heterodimer) (P67775 whole entry, chain 2 of 2): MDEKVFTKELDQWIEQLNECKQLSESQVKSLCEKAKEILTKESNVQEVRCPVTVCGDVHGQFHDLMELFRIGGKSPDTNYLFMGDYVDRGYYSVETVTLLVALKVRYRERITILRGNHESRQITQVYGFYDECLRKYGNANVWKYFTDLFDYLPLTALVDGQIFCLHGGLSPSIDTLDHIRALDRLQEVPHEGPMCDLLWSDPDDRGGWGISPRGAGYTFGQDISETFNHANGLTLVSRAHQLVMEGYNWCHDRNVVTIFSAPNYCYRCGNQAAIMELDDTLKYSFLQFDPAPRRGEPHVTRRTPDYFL

Chain of GST-tagged PP2A core enzyme (GST-A bound to PP2Ac) (P30153 9-589, chain 1 of 2): as the sequence (P30153 9-589, chain 1 of 2) above
Chain of GST-tagged PP2A core enzyme (GST-A bound to PP2Ac) (P67775 whole entry, chain 2 of 2): as the sequence (P67775 whole entry, chain 2 of 2) above
Chain of PP2A catalytic subunit Cα (1-309), methylated (P67775 whole entry): as the sequence (P67775 whole entry, chain 2 of 2) above
Chain of PP2A holoenzyme containing PR70 (108-519) (P30153 9-589, chain 1 of 2): as the sequence (P30153 9-589, chain 1 of 2) above
Chain of PP2A holoenzyme containing PR70 (108-519) (P67775 whole entry, chain 2 of 2): as the sequence (P67775 whole entry, chain 2 of 2) above
Chain of PP2A scaffold subunit Aα (9-589) (P30153 9-589): as the sequence (P30153 9-589, chain 1 of 2) above

## B1
[1]
  binding result: binds

## B2
PR70 (108-575) F128A
  binding result: binds
[2]
  binding result: binds
PR70 (108-575) R398D
  binding result: binds
PR70 (108-575) D443K
  binding result: binds

## B3
[1]
  fold reduction of binding affinity against wild-type PR70 (108-575): ~2 fold

## B4
[1]
  fold reduction of binding affinity against wild-type PR70 (108-575): ~4 fold

## B5
[3]
  binding result: binds

## B6
[4]
  binding result: binds
[5]
  binding result: binds

## B7
[6]
  binding result: binds
